Numbering of substitutions follows the chain as printed.
T1: human LAIR1 extracellular domain (ECD) protein with 6 HIS tag at the C-terminus (human, UniProt Q6GTX8 22-165)
T1 construct: Produced recombinantly in HEK293 cells; the whole entry is named here; also called LAIR1 ECD; LAIR1-ECD
T1 chain: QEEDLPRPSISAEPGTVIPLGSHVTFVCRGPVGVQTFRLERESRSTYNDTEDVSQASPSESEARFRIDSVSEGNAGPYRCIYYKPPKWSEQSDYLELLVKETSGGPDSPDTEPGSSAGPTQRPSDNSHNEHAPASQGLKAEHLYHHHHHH

T2: LAIR1 on LAIR1 reporter cells (human, UniProt Q6GTX8 22-165, limits assumed)
T2 chain: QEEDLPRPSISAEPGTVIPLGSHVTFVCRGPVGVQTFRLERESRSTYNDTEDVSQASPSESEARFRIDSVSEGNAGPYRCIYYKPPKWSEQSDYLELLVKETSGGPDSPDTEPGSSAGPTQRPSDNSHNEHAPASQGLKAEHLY

B1: LA-37 (antibody, V domains shown)
VH: EQSLEESGGDLVKPGASLTLTCKASGFSFSSSEFMCWVRQAPGKGLEWIACIYGGLSDDTYFASWAKGRFTISKTSSITVTLQMTSLTAADTATYFCARSCDVNYYGFDPWGPGTLVTISS
VL: ELVLTQTPAPVSAAVGDTVTIKCQASQNKGTNLAWYQQKPGQPPKLLIYLSSTLASGVPPRFKGSRSGTEYTLTISDLECADAATYFCQSTYYGSNGLTFGGGTEVEIK
notes: Rabbit monoclonal IgG; also called mAb LA-37
B2: LA-222 (antibody, V domains shown)
VH: EQSVEESGGDLVKPGASLTLTCTASGFSFTYWICWVRQAPGKGLEWIACIYAGSSGDTYYASWAKGRFTISKTSSTTVTLQMTSLTAADTATYFCARSPDYVAWGYDLWGPGTRVTVSS
VL: ELVLTQTPASVSAAVGGTVTINCQASQSIGTNLVWYQQKPGQPPKLLFYYASTLASGVPSRFRGSRSGTEYTLTISDLECADAATYYCQCIYYGGNYGHTFGGGTEVVVK
notes: Rabbit monoclonal IgG
B3: LA-87 (antibody, V domains shown)
VH: QSVKESGGRLVTPGGSLTLTCTVSGFSLSNYNIQWVRQAPGKGLEWIGFISPAGNGYYASWAKGRFTISKASSTTVELKMTSLTASDTATYFCARHWDLWGPGTLVTISS
VL: ELVLTQTASSVSAAVGGTVTISCQSSQSVYSNYLSWFQQKPGQPPKELVYWTSTLQSGVPSRFSGSGSGTQFTLTISDLECDDAATYYCLGGYSGWFYAFGGGTEVVVK
notes: Rabbit monoclonal IgG; also called mAb LA-87
B4: LA-95 (antibody, V domains shown)
VH: EQSLKESGGRLVTPGGSLTLTCTASGFDINNYNIQWVRQAPGKGLEWIGFISPAGNEYSATWAKGRFTIYKTSSTTVELKMTSLTASDTATYFCARHWDSWGPGTLVTISS
VL: B3 VL with L4M, A8E, S10P, Y33R, W96N, F97I, A99V, V107E, V108I
notes: Rabbit monoclonal IgG; also called mAb LA-95
B5: LA-35 (antibody, V domains shown)
VH: EQSVKESGGRLVTPGTPLTLTCTVSGIDLSYYSMGWFRQAPGKGLEWIGVISSSDSTYYANWAKGRFTISKTSTTVDLKIAGPTTEDTATYFCARVLANSYNAFNLWGPGSLVTISS
VL: ELDLTQTPASVSEPVGGTVTIKCQASQSVGSRLAWYQQKPGQPPKLLIYKASTLASGVPSRFKGSGSGTQFTLTMSDLECADAATYYCQCTNISSAYLGAFGGGTEVEIK
notes: Rabbit monoclonal IgG; also called mAb LA-35
B6: LA-63 (antibody, V domains shown)
VH: EQSVEESGGRLVAPGGSLTLTCTVSGFSLSSYAMSWVRQAPGKGLEWIGVMYNSGSAYYASWAKGRFTISRTSTTVDLKVTSLTTEDTATYFCGRGGSNSAWGDDLWGPGTLVTVSS
VL: ELDMTQTPASVSEPVGGTVTIKCQASQSISIRYFSWYQQKPGQPPKLLIYGASTLASGVPSRFKGSGSGTDFTLTISDLECADAATYYCQDSNYNSNYFGAFGGGTEVVVK
notes: Rabbit monoclonal IgG; also called mAb LA-63
B7: LA-117 (antibody, V domains shown)
VH: QSVKESGGDLVKPGASLTLACTASGFSFSDGYYMCWVRQAPGKGLEWIGCIHSSSGSIYYASWAKGRFTISKTSSTMVTLQMSSLTAADTATYFCARDSESYGYNPCELWGPGTLVTISS
VL: ELDLTQTPASVSEAVGGTVTIKCQASQTISNYLAWYQQKPGQRPKLLIYAASSLASGVSSRFRGSRSGTEYTLTITDLECDDAATYYCQCTYYGTTYVGGAFGGGTELEIK
notes: Rabbit monoclonal IgG
B8: LA-252 (antibody, V domains shown)
VH: EQSVEESGGRLVTPGTPLTLTCTASGFTISDYHMCWVRQAPGKGLEWIGLIRASHSTAYASWANGRFTISRTSTTVDLKITSPTSEDTATYFCARYGGSGIGCNLWGPGTLVTISS
VL: ELVLTQTPASVSEPVGGTVTIKCQASQSIDSNLAWYQQKPGQPPKQLIYAVSNLASGVPSRFKGSGSGTEFTLTISDLECADAASYYCECTYYGNSYVGGFGGGTEVEIK
notes: Rabbit monoclonal IgG; Called a potential antagonist antibody
B9: LA-155 (antibody, V domains shown)
VH: EQSLEESGGDLVKPEGSLTLTCTASGFSFNSNYWICWVRQTPGKGLEWIGCIYSGSSGDTYYASWAKGRFTISKTSSTTVTLQMTSLTAADTATYFCARGADYVYWSYGLWGPGTLVTISS
VL: ELVLTQTPASVSAAVGGTLTIKCQASETIGTNLAWYQQKPGQPPKLLIYLASYLASGVSSRFKGSRSGTEFTLTISDLDCDDAATYYCQSTHFGNGHTFGGGTEVVVK
notes: Rabbit monoclonal IgG
B10: LA-30 (antibody, V domains shown)
VH: EQSVESGGGLVQPEGSLTLTCKASGFDFSRNAICWVRQAPGKGPEWIACYSFSSSATYYASWAKSRFTISKTSSTTVTLQMTSLTAADTATYFCARVDIYGGSRYWGMWGPGTLVTISS
VL: ELVMTQTPASVEAAVGGTVTIKCQASQNIGGDLAWYQQKPGQPPKLLIYRASTLESGVPSRFSGSGSGTEFTLTISDLECADAATYYCQDTDIGSGAFGGGTELEIK
notes: Rabbit monoclonal IgG; also called mAb LA-30
B11: LA-64 (antibody, V domains shown)
VH: EQSLESGGGLITPGGTLTLTCTASGFTVTRYYMNWVRQAPGKGLEWIGYIYASSKTYYANWAKGRFTISKTSTTVDLKMTSLTAEDTGTYFCARGGVGNSGLNLDLWGPGTLVTISS
VL: ELVLTQTPASVSEPVGGTVTIKCQASQSIGSWLAWYQQKPGQPPKLLIYQASRLASGVSSRFGGSGSGTEFTLTISDLECADAATYYCQQAEYSGDVENTFGGGTEVVVK
notes: Rabbit monoclonal IgG; also called mAb LA-64
B12: LA-151 (antibody, V domains shown)
VH: SSSVEESGGRLVTPGTPLTLTCTVSGFSLGSYAMGWVRQGPGKGLEWIGAVYGTTGYIYFATWAKGRFTISKTSTTVDLKITSPTTEDTATYFCARGYLTDSIANGFGVWGPGTLVTVSS
VL: ELDLTQTPASVSEPVGGTVTIKCQASQTITNRYLAWYQQKPGQPPKLLIYQSSKLASGVSSRFKGSGSGTDFTLTISDLECADAATYYCQCTDYGSTYLGTFGGGTEVEIK
notes: Rabbit monoclonal IgG
B13: LA-101 (antibody, V domains shown)
VH: EQSVEESGGRLVTPGTPLTLTCTVSGFSLSSFHMCWVRQAPGKGLEYIGIIYPGGSTGYANWAKGRFTVSKASNTVDLKISSPTTEDTATYFCARVNYGDWINGMDLWGPGTLVTISS
VL: ELDMTQTPASVSEPVGGTVTIKCQASQSIGSNLAWYQQKPGQRPKLLIYKASTLASGVPSRFKGSGSGTDFTLTISDLECADAASYYCQQAYWSGNVDNVFGGGTEVEIK
notes: Rabbit monoclonal IgG

Molecular target: T1, human LAIR1 extracellular domain (ECD) …
Assay: ELISA, LAIR1 ECD coated, mAb titrated, anti-rabbit HRP
Protocol: (§1) The inventors then used a concentration titration (0-10 μg/ml) by ELISA to determine the LAIR1 monoclonal antibody (mAbs) binding to human LAIR1 ECD. […] For FIGS. 2-39, X axis indicates the antibody concentrations and Y-axis is binding signals, measured as OD (450 nm). To perform the ELISA assay, LAIR1 ECD recombinant protein was coated on high absorption 96-well plates. Serial diluted (3-fold) LAIR1 mAb was added to the coated/blocked plates and detected using goat anti-rabbit F(ab′)2 conjugated HRP as secondary antibody. All assays were repeated 3 times and the titration curves were fitted using 4-parameter fitting curve using the GraphPad software for EC₅₀ estimation.
(§2) Serial dilutions of the LAIR1 monoclonal antibodies (IgGs or scFvs fragments), starting from […] and 3-fold titration down for 12 steps, were added to the 96-well plate for binding by incubating 45 minutes at 37° C. with a cover on the assay plate. Then the plates were washed with PBS containing Tween 20 (0.05% concentration) for 3 times and PBS one time. […] Detection was conducted by adding HRP substrate, TMB (ThermoFisher) for 10 minutes, and stopped by adding 50 μl/well of 2N H2504. The plates were read for absorbance at 450 nm using a plate reader (SpectraMax M4, Molecular Devices). Data were collected and graphed using a 4-parameter fitting curve with GrapPad Prism 7 software for EC₅₀ calculation.

| Binder | EC50 |
| --- | --- |
| B1 | 0.05 nM |
| B2 | 0.05 nM |
| B3 | 0.06 nM |
| B4 | 0.04 nM |
| B5 | 0.08 nM |
| B6 | 234 nM |
| B7 | 0.08 nM |
| B8 | 0.05 nM |
| B9 | 0.04 nM |
| B10 | 0.07 nM |
| B11 | 0.09 nM |
| B12 | 0.08 nM |
| B13 | 0.05 nM |

Molecular target: T2, LAIR1 on LAIR1 reporter cells
Assay: cell-based or functional assay

| Binder | GFP+% of LAIR1 reporter cells, collagen I coated, soluble Ab |
| --- | --- |
| B1 | 0.86% |
| B2 | 0.905% |
| B3 | 1.45% |
| B4 | 0.711% |
| B5 | 1.1% |
| B6 | 2.42% |
| B7 | 3.19% |
| B8 | 0.679% |
| B9 | 0.746% |
| B10 | 1.51% |
| B11 | 1.5% |
| B12 | 0.678% |
| B13 | 2.92% |

Molecular target: T2, LAIR1 on LAIR1 reporter cells
Assay: cell-based or functional assay
Remark: another data set of the same source

| Binder | GFP+% of LAIR1 reporter cells, collagen I coated, soluble Ab and K562 cells |
| --- | --- |
| B1 | 1.08% |
| B2 | 0.792% |
| B3 | 0.844% |
| B4 | 0.595% |
| B5 | 1.13% |
| B6 | 1.31% |
| B8 | 0.698% |
| B9 | 0.867% |
| B10 | 1.94% |
| B11 | 2.29% |
| B12 | 1.95% |

Molecular target: T1, human LAIR1 extracellular domain (ECD) …
Assay: ELISA, LAIR1 ECD coated
Protocol: as §1, §2

| Binder | EC50 (read off the curve) |
| --- | --- |
| B1 | ~8 ng/mL |
| B2 | ~7 ng/mL |
| B3 | ~10 ng/mL |
| B4 | ~7 ng/mL |
| B5 | ~10 ng/mL |
| B7 | ~10 ng/mL |
| B8 | ~8 ng/mL |
| B9 | ~7 ng/mL |
| B10 | ~10 ng/mL |
| B11 | ~10 ng/mL |
| B12 | ~10 ng/mL |
| B13 | ~8 ng/mL |

Molecular target: T2, LAIR1 on LAIR1 reporter cells
Assay: cell-based or functional assay
Remark: another data set of the same source

| Binder | GFP+ of LAIR1 reporter cells, Collagen I coated | GFP+ of LAIR1 reporter cells, Collagen I coated + K562 |
| --- | --- | --- |
| B8 | < 5% | < 5% |
